Test results taken from the DeepSol protein solubility set.

experiment: soluble on expression in E. coli; label from the status in PepcDB or PDB records

Question: For “MGHHHHHHHHHHSSGHIEGRHMDINGVLLLDKPQGMSSNDALQKVKRIYNANRAGHTGALDPLATGMLPICLGEATKFSQYLLDSDKRYRVIARLGQRTDTSDADGQIVEERPVTFSAEQLAAALDTFRGDIEQIPSMYSALKYQGKKLYEYARQGIEVPREARPITVYELLFIRHEGNELELEIHCSKGTYIRTIIDDLGEKLGCGAHVIYLRRLAVSKYPVERMVTLEHLRELVEQAEQQDIPAAELLDPLLMPMDSPASDYPVVNLPLTSSVYFKNGNPVRTSGAPLEGLVRVTEGENGKFIGMGEIDDEGRVAPRRLVVEYPA”, which “soluble on expression in E. coli” value is on record?
Answer: soluble

Question: With “PKIAGIDLGTTYSSIGIYHAVTGETIILPDDLGKKSVPSVVAFLPNGTVLIGTRATEQQEHNPKRTIYDAKRFIGRNFEKNNKDFLSDQKRYPFKINLDSEGKAFFEIPLDSGTKNVYPEEIGSLIIGYLKSAAAKHLGVTLGQVVISCPAEFNEKQRNFTAKAAEIAEMEVRRVISEPTAAALAYGLHKKQGVENVVVVDLGGGTLDVSVLWLQGGVFVTQAMAGNNRLGGQDFNDRVQKHLISKIAEKFGKTIDNKEDIQQIRMEVEKGKIRLTNVPSTTISLNLKTVGKWNYELTRDEFETLNGDLLKAIELPITAALADANLDTADVDEIVLVGGSTQVPAVRKIVGRFFKKSANYGVDPELAVVTGASVQAGVIGGGWPLQVAAMELPAKRRKRHFFTEEQKENEKDRTISEL” as the sequence, how does the “soluble on expression in E. coli” value read?
Answer: not soluble

Question: With “MDVAALVSGGVDSSVVVHRLCEEGYKPAIFYIRIGMEDKDGYIDCPAEEDIELTTLIARRYGCPFEVVDLHKEYWERVVSYTVETVRRGLTPNPDMMCNKLIKFGCFEERWGYQFDRIATGHYATTDLLNGKTYLSTAKDPVKDQTDFLAQINFAQISKLMFPIGHLLKSEVRAIANAAGLPSAKRKDSQGICFLGKIDYNDFIERYLGKKEGRIIELETGKVIGRHQGYWFHTIGQRKGLGLSGGPWFVVKKDIKRNIILVSRGYDPDAQYGKTIEMETFDFITEDAYEAGYWNREDATPVTFKIRHTPEFTRGLLYKGEKGYRLESEERIQGIAPGQYCVIYDEDHHLCYGSGMITKGR” as the sequence, how does the “soluble on expression in E. coli” value read?
Answer: not soluble

Question: For “MAHHHHHHMPGSLKVQTGRGDARKTVKKTVLSKGNITRSDEPAGVADSAASASVAKSSSTTASTLTIAVALSMCEQERAVEAVKETIPASASREVLRKDPIYRIMHALPRSDVLEVVRSRFEKPHCERAAAYFDLSYMKNPLRHLRLQLGCDGPTGIYLFFRRIAAHRHTLRVVDFSRNRLSADDAVLICNTLGLGVAGDVATAPGTTKASSAGAVADSTVSTAVGASAQPASSLELLDLSYNAKLGNDGAVHVVRAVRRLPSIRAVILKSVGIDDAGAVAMADVVRRWPAPALCANSAAPHALLRPVTASATKFYLNLNENYIGARGTDVLGKGLPHYVSLTLAKQQPDPARDRKRSRDDDGAACR”, which “soluble on expression in E. coli” value is on record?
Answer: not soluble

Question: With “MHRSTFIRTSGTSSRTLTARYRSQYTGLLVARVLFSTSTTRAQGGNPRSPLQIFRDTFKKEWEKSQELQENIKTLQDASGKLGESEAYKKAREAYLKAQRGSTIVGKTLKKTGETMEHIATKAWESELGKNTRKAAAATAKKLDESFEPVRQTKIYKEVSEVIDDGESSRYGGFITKEQRRLKRERDLASGKRHRAVKSNEDAGTAVVATNIESKESFGKKVEDFKEKTVVGRSIQSLKNKLWDESENPLIVVMRKITNKVGGFFAETESSRVYSQFKLMDPTFSNESFTRHLREYIVPEILEAYVKGDVKVLKKWFSEAPFNVYAAQQKIFKEQDVYADGRILDIRGVEIVSAKLLAPQDIPVLVVGCRAQEINLYRKKKTGEIAAGDEANILMSSYAMVFTRDPEQIDDDETEGWKILEFVRGGSRQFT” as the sequence, how does the “soluble on expression in E. coli” value read?
Answer: not soluble

Question: For “SNAMTIRFADKADCAAITEIYNHAVLHTAAIWNDRTVDTDNRLAWYEARQLLGYPVLVSEENGVVTGYASFGDWRSFDGFRYTVEHSVYVHPAHQGKGLGRKLLSRLIDEARRCGKHVMVAGIESQNAASIRLHHSLGFTVTAQMPQVGVKFGRWLDLTFMQLQLDEHAAPDAC”, which “soluble on expression in E. coli” value is on record?
Answer: soluble

Question: With “GTIITVTAQANEKNTRTVSTAKGDKKIISVPLFEKEKGSNVKVAYGSAFLPDFIQLGDTVTVSGRVQAKESGEYVNYNFVFPTVEKVFITNDNSSQSQAKQDLFGGSEPIEVNSEDLPF” as the sequence, how does the “soluble on expression in E. coli” value read?
Answer: soluble

Question: With “MDWDDEYSHNSFDLHCLLNSFPGDLEFEQIFSDIDEKIEQNAASIKHCIKEIQSEINKQCPGVQLQTTTDCFEWLTNYNYSTSESSFISHGDLIKFFKTLQDLLKNEQNQEEMTLDLLWDLSCHSSVSFPSTLSGTSFHFLSRTSLHSVEDNSSMDVKSMWDDIRLHLRRFLVSKLQSHNEINNSQQKILLKKQCLQQLLFLYPESEVIIKYQNIQNKLLANLLWNCFPSYNRDSNLDVIAHGYQSTMLKLYSVIKEDFNTLCEILAPSSMVKFIKETYLDTVTEEMAKFLENFCELQFRENAVRVVKTSKSSSKHRGAVHALG” as the sequence, how does the “soluble on expression in E. coli” value read?
Answer: soluble

Question: For “MGSDKIHHHHHHMSLCYEEALFLEKDLERLKALRTIAPMNEILDHAEVAALAEGIGKAVLGETITQVIDDYRKQLLGDKSFAASMSHLSRQEITLHLVQELKDKLDAQDSTCLKKLINATGIVLHTNLGRAPLPDSAIGLIQEVNEGYSNLEFDLETGNRGSRHTHIEPLITRLTGAESAMVVNNNAAAVFISLNTLAKQRDVIISRGQQVEIGGSFRIPDIIASSGCTMIEVGTTNKTKPDDYAKAITENTAVLLKVHTSNYKISGFTEEVPLQDLVELGKIKNVLVMEDLGSGCLYDLSKIGLPHEPTVQEVIAGGADLVTFSGDKLLGGPQIGVIAGKKALIDKIKKNSFARIVRCDKSSIAALTAVLKLYMNPEKALAQIPALNMLALKEADLLLRAEELERQLQAALGERCQVEIVDVHDEAGGGSLPDVLLKGKAVSLTIDGLSANRLQELLRQEPIPIICRIVKDKVLLNVRTMSEKEFPLITQTMQNIVG”, which “soluble on expression in E. coli” value is on record?
Answer: not soluble

Question: Which “soluble on expression in E. coli” value does the source give for “MKREEYLKNYLESYLRKKEVSLTEEEFNVILREFLRFAYNPEESGQEIADTADGSKTLIHKTYGEPYHSQTAGAIRESLYKFVRPSRILEKAKERKVIRILDVGFGLGYNLAVALKHLWEVNPKLRVEIISFEKELLKEFPILPEPYREIHEFLLERVPEYEGERLSLKVLLGDARKRIKEVENFKADAVFHDAFSPYKNPELWTLDFLSLIKERIDEKGYWVSYSSSLSVRKSLLTLGFKVGSSREIGRKRKGTVASLKAPVPPMEENEVRKLVLSPFAVPMRDEKLDKEPLEILIDYLLKVYKISR” here?
Answer: soluble

Question: For “MQAAITVAIPILYKDSVSCSHAESEHFSGTGVTVIIFEVGRDCMKYSFLRQINACVCFDQYEEMEGLLCNGLYMFFIQYTPTILRGDLFAF”, which “soluble on expression in E. coli” value is on record?
Answer: not soluble

Question: Which “soluble on expression in E. coli” value does the source give for “MNVSVERYQRRKYVSQENSPMLYYVRQKSGTVRVMDVEKLADAIEANSSLTAGDVKHAIEAFVEQLRLSLTQGDKVKIDGLGTFHITLCSEGTEKEKDCTVRSIRKVNVRFVADKALHLVNASHTSTRSENNVEFVLASKGDTEGGNAGGGNTGGGGNSGGGGNSGGDEEAPDPTV” here?
Answer: not soluble

Question: With “MLSIKGKKWRNWTGNVEGTPHYTMYPESIQDVVEVVGLARKKGKKIRVVGSGHSFTPLVQTEEVLVSLDELKGIVNIDAEKMVAEVWAGTKLYDLGKLLEEKGYAQENLGDIDSQSIAGAISTGTHGTGITFGSLSTQVIEITAVLSNGESIVCSETENVEYWRAFQLSLGMLGIIVKIKLKVIPAYSLVYESEKQSLSTVMNKLEEYKKHRHFEFFVFPYSDEVQVKLTNETTNTGSDLKWHKLKVELLENRMFSLLSKGCKWFPSISKGVSRLSAKAVPNTKIIGPSYEVFATSRTVPFYEMEYSIPSKYMRTVVEEISNLIEKKKYKVHFPIECRYVKGDDIWLSPAYGRDSAYIAVHMYKGMKYAAYFGEVEKIFLKYEGRPHWGKMHTLSYEQLQDIYPEFHSFLQARKSLDELGMFFNPYAEKLFIPLFAGQ” as the sequence, how does the “soluble on expression in E. coli” value read?
Answer: not soluble

Question: Which “soluble on expression in E. coli” value does the source give for “MWRRYPQVEEKLGWYSRVMRGEEPPKYRIVRTFEVGFDSEDDIRRALTEELWREHERVAGEFRRLFRSLREGGSYEGDIKDARPSLMDVKVELVRRLASPCELCERRCRVERAKSRRGACRLAWEVYVHSAFLHLGEEAPLVPSGTIFYGGCNFTCVFCQNWDVSQWKARDAHIVTPRRLGEIQDRLAEAGARNINHVGGDPVPSLHVIVESMKYASHLKPQLWNSNMYMTLEALDILVDLIDIWLPDLKFGNDRCAMRLSAVPRYWEVTTRNILLAAEHGDMIIRHLVMPGHVECCTKPVLRWIAENLGDRVLVNIMDQYHPDNLVLRMPHKWPEIARRPSRREIEEAWRYAEQLGLDWEPVTK” here?
Answer: not soluble

Question: Which “soluble on expression in E. coli” value does the source give for “AASQSTPWGIKAIYNNSNLTSTSGGAGINIAVLDTGVNTNHPDLSNNVEQCKDFTVGTNFTDNSCTDRQGHGTHVAGSALANGGTGSGVYGVAPEADLWAYKVLGDDGSGYADDIAEAIRHAGDQATALNTKVVINMSLGSSGESSLITNAVDYAYDKGVLIIAAAGNSGPKPGSIGYPGALVNAVAVAALENTIQNGTYRVADFSSRGHKRTAGDYVIQKGDVEISAPGAAVYSTWFDGGYATISGTSMASPHAAGLAAKIWAQSPAASNVDVRGELQTRASVNDILSGNSAGSGDDIASGFGFAKVQ” here?
Answer: soluble

Question: For “MPEKKPVTAENSVGIDLGIEKFAILSDGIAVENPRFIKRVEKRIKKLQKQISRKKKGSKNYEKQKIRIQKKYRKLRNLRDDFHDKVSTAIAKRYDTIFIEDLNVRGMQRNHHLARSITDVSFYSFKEKLKWKADRYGKNLIEIGRFDPSSKLCSRCGNIKKDLKLSDRVYSCDACGLTIDRDYNASLDIRKIGLVKVGLVPPEFTPVEIATSGLDGIYPYRQMSVGESGRSEASAEELEHHHHHH”, which “soluble on expression in E. coli” value is on record?
Answer: not soluble

Question: Which “soluble on expression in E. coli” value does the source give for “YATQSKNTNILLEYVSANPTGDLHIGHARNAAVGDSLANILIAAGYNVTREYYINDAGNQITNLARSIEARYFEALGDTSYEMPADGYNGKDIIEIGKDLAVKHPEIKDYSDEERLKTFRQLGVDYEMEKLKKDLSDFNVHFDNWFSETSLYENGAIKNTLSKMKELGYTYEADGATWLRTSDFKDDKDRVLIKKDGNYTYFTPDTAYHYNKINRGNDILIDLMGADHHGYINRLKASLETFGVDSDRLEIQIMQMVRLMQNGEEVKMSKRTGNAITLREIMDEVGIDAARYFLTMRSPDSHFDFDLELAKEQSQDNPIYYAQYAHARICSILKQAKE” here?
Answer: not soluble

Question: Which “soluble on expression in E. coli” value does the source give for “MIDLENQEREIINLMFSQRISWLAAVRIRHKLSLAEVSKMLGISINSLKQIEKTERLSSNIKSKMAEIYGCPPELLICPSWMTAEHK” here?
Answer: not soluble

Question: With “YNGQSETSQQPETPVFNTLPMMGKASPVSLGVPSEATANNGQQQQVQEQRRRINAMLQDYELQRRLHSEQLQFEQAQTQQAAVQVPGIQTLGTQSQ” as the sequence, how does the “soluble on expression in E. coli” value read?
Answer: soluble

Question: Which “soluble on expression in E. coli” value does the source give for “MSTPTLSPSTEKLIPIIGLSVSGTFSPRPIATTAHSVVFKVDSQLYRREVIVKIVDRKSIPANVAEKFFPRELEITMKVRHPHIARCLAITRPAPTKFVIISDYYERGTLLEWILQKKRLKEHPLAATLFRQLIEAINYLHKRGIVHRDVKLENILIDGNGDIKLIDFGFARHIERRERSRSFCGTQPYTCPQITKYRPYEAYAADYYACGIVLFTMVTGKWPNMTENPNIYPEGYPSRSCRKLVSSLLDGNEMSRAGYDECVNSEWMGVHPVWMFANHAYFYEEVRGEDPNSSNCEMSEI” here?
Answer: not soluble

Question: With “MMFSLSKELEEYRAKIREYAQKTVREYAKQMDETNDGGDKIVKDLGEMGLLGMKQPTKYGGLGLGEMAFAIATEELGAESGGASHSLHTQQNALQLLVSVGGDSAQEWIEKGIKAKEVYAVALTEPQAGSDLGALQTTAKPDGNELVLNGEKIFTSAASFSTKMVVLARTSGNPGDRQGISLLLIDSKLPGIEIHKLDIMGIRGAGVSYVKFNNVRIPKDSIIGKEGDAYRGALKALMVSRNGYAGIAVGIARGALEEAISRAQSRKQFGKALIEQEWISFNLADAYIKVEAARLLTWRAAQLFDNDYEATTEASMAKYYAAVTATEVTRLALHIFGGHGLNRGSKVERLYRDAKIMEIAEGTNEMQLVAVSRLFQPKK” as the sequence, how does the “soluble on expression in E. coli” value read?
Answer: soluble
